The source of these data is US7550425B2, “Diuretic peptide conjugates” (Zealand Pharma A/S, priority 2000, dated 2009).

Read-outs that look alike come from different tables or passages of the source. Peptide text beside a SMILES is read from it.

In general, IC50 refers to the concentration at which inhibition is half-maximal. Low readings indicate inhibition by little substance, high ones a need for much substance.

In one series the target is hORL1 receptor (Homo sapiens, UniProt P41146). Nature of the series: Binding to human ORL1 receptor expressed in CHO cells. The arrangement: expressed in transfected cells; host or cells: CHO.
hORL1 receptor, sequence (P41146 whole entry): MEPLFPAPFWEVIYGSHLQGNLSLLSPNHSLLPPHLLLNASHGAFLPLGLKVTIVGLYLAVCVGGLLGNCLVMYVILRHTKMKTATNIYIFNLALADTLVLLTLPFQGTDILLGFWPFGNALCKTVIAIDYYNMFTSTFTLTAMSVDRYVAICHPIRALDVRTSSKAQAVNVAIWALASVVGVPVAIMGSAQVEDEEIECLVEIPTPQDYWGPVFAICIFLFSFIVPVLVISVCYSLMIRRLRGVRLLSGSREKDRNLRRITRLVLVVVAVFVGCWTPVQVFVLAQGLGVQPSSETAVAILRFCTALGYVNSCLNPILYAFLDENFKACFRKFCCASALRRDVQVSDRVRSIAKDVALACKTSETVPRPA
For series [1], the system named is conscious Sprague Dawley rats. Type of series: in vivo, rat. The method, then:
In the conscious rat model, the animal is chronically instrumented with catheters in the urinary bladder, the femoral artery, and the femoral vein. The animal receives a continuous i.v. infusion with isotonic saline, 50 μl/min. Urine is collected in vials in consequtive urine collection periods of 10 min each. After two control periods, the test compound is administered and fractionated urine collections (10 min periods) are continued for at least two hours. Urinary concentrations of sodium and potassium are determined by flame photometry (Instrumentation Laboratory 943) using caesium as internal standard.
The diuretic effect of the peptide conjugates of the invention has been tested in conscious rats, where Compound 1 elicits a powerful and sustained diuretic response. Cardiovascular and renal responses produced by i.v. infusion of nociceptin (Phoenix Pharmaceuticals) and Compound 1 have been studied in conscious Sprague Dawley rats. The results are shown in FIGS. 2 to 8 wherein HR is heart rate, MAP is mean arterial pressure, V is urine flow rate, UNaV is urinary excretion rate of sodium, RSNA is renal sympathetic nerve activity expressed as % of the control level, Cosm is the osmolar clearance, and CH2O is free water clearance.
Furthermore, the effects of i.v. bolus administration of nociceptin (30 and 100 nmol/kg, Phoenix Pharmaceuticals) and nociceptin-NH2 (30 nmol/kg) on heart rate, arterial pressure and RSNA were studied in groups of 6 conscious Sprague-Dawley rats.
[…] After stabilization of urine flow rate and urinary sodium excretion, urine was collected during a 20-min control period. After this, the i.v. bolus injection was given or the i.v. infusate was switched to a solution of isotonic saline containing Compound 1 (i.v. infusion experiments). From the time of drug administration, experimental urine samples (10-min consecutive periods) were taken for 80 min.
One hour prior to the start of each experiment a food pellet (standard rodent chow) was placed within access to the rat though a hole in the rat holder. The number and time of feeding responses (i.e., times in which the rat began to eat the food pellet) was recorded before, and after drug administration. If a positive feeding response was observed, the pellet was removed from the restrainer to prevent feeding-induced alterations in heart rate and/or mean arterial pressure. At 10-min intervals, the food pellet was presented to the rat to determine the duration of the feeding response.

In a further series the test system is mouse vas deferens. Nature of the series: Mouse vas deferens assay: inhibition of electrically-induced contraction. Particulars: cumulative addition; data not shown. The source says:
The compounds of the present invention are pharmacologically active, e.g. as nociceptin agonists or partial agonists, and a useful method of showing activity is described by Hughes J., Kosterlitz H. W., Leslie F. M.: Effect of morphine on adrenergic transmission in the mouse vas deferens. Assessment of agonist and antagonist potencies of narcotic analgesics^[4]. The isolated electrically stimulated mouse vas deferens preparation has been widely used to evaluate the functional pharmacological actions of opioid agonists and antagonists in vitro^[5].
(§1) The vas deferens from male NMRI albino mice weighing 30-40 g were placed in a SCHULER organ bath Type 809, Hugo Sachs Elektronik, Germany, and perfused with a 37° C., modified Krebs solution (NaCl 6,9 g/L, KCl 0.35 g/L, KH2PO4 0.16 g/L, NaHCO3 2.1 g/L, Glucose H2O 2.0 g/L, CaCl2 2.52 mL/L). The solution was gassed with carbogen (95% O2 and 5% CO2) throughout the experiment. The tissue was electrically stimulated through two silver electrodes directly in the organ bath using a HSE Stimulator I Type 215. Stimulation of the tissue was performed by applying a supramaximal voltage (15 Volts) in trains of 10 square pulses every 60 s, each of 1 ms duration with a frequency of […]. Concentration-response curves were performed by adding test substances that relax mouse vas deferens smooth muscles cumulatively to the organ baths. The test substances used in the assay were nociceptin in an isotonic saline solution, Compound 1 (as the trifluoroacetate in an isotonic saline solution), Compound 2 (as the trifluoroacetate in an isotonic saline solution), and the hexapeptide Ac-RYYRWK-NH2 (SEQ ID NO: 1) (as the trifluoroacetate in an isotonic saline solution).

Series [2] is described as follows: In vitro stability in heparin stabilised mouse plasma. Type of series: in vitro ADME. Conditions: heparinised mouse plasma, 37° C., read-out: half-life t½ of degradation. As for the experimental part:
Degradation of peptides is almost exclusively seen in the presence of enzymes, e.g. in the bloodstream. An important feature of a putative drug is whether it is quickly degraded in vivo or whether it is able to conduct its effects over a longer period of time. To be able to examine the stability of the peptide conjugates of the present invention degradation was tested in heparin stabilised mouse plasma (obtained from Harlan Seralab, UK).
The stability studies were run in triplicate. 100 μL of a 1 mg/mL solution of the test compound (peptide conjugate) was added to an Eppendorf tube, containing 900 μL plasma, incubated at 37° C. Immediately after addition, a sample of 100 μL was removed and added to an Eppendorf tube, containing 10 μL of extraction solution (50% TFA (trifluoroacetic acid) in MeCN, v/v). This sample constitutes t=0. […] The samples are centrifuged at 20,000×g, and the supernatant was transferred to vials and analysed by high-performance liquid chromatography (HPLC).
The analysis was performed on a HP1100 HPLC with a quaternary pump. The column used was a Vydac 201SP5215, and the apparatus comprises an autosampler, a column oven, a variable UV detector and a fluorescence detector. […] These values were transferred to Microsoft Excel, where half-lives (t½) and rate constant (kobs) for Ac-RYYRWK-NH2 (SEQ ID NO: 1) and Compound 1 were determined by fitting to the equation.

Series [3] can be described thus: In vitro stability in heparinised human plasma. Type of series: in vitro ADME. As for the experimental part:
In addition, the degradation of Compound 1 of the invention has been studied in heparinised human plama.
The stability of peptides is analysed in human plasma. The peptides are incubated at 37° C. in plasma and samples taken at approx. 8 regular intervals between t=0 and t=390 min for Compound 1 and nociceptin-NH2, and at 9 intervals between t=0 and t=32 min for Compound CE1 are analysed by HPLC. […] This is done by subsequent injections of the drug, plasma, and a co-injection with the drug and the plasma, followed by optimisation of the LC method parameters until a satisfactory separation is obtained. Three parallel experiments are performed for each plasma type. 100 μl of peptide is mixed with 900 μl plasma at t=0 and incubated at 37° C. (drug-plasma mixture conc. 0.1 mg/ml). Samples of 100 μl of the drug-plasma mixture are removed at appropriate intervals and the degradation stopped by precipitation of the sample with 10 μl MeCN:TFA 50:50 v/v. A control plasma sample without the drug treated in the same manner is also taken. The plasma samples are centrifuged for 15 min. at 12,000 rpm (Eppendorf centrifuge) at ambient temperature. The resulting supernatant solution is transferred to 300 μl HP autosamler vials and analyzed by HPLC. HPLC analysis are performed as follows:
Ac-RYYRWK-NH2 (SEQ ID NO: 1) and Compound 1
The samples are analysed in the following order: blank, the peptide at 0.1 mg/mL, the plasma without the peptide, the three parallel samples for t=0, the three parallel samples for t=5 min. the three parallel samples for t=60 min. etc. And finally the three parallel samples for t=0 are repeated to make sure that there have been no degradation or other failure during the analyses. The sample concentrations (peak height in mAU) are plotted vs. time and fitted to a function describing a mono exponential decay (Excel). The half-lives of the peptides in plasma are presented in Table 7 as mean (n=3)±standard deviation.

Series [4] has as its system nociceptin-induced smooth muscle relaxation in mouse vas deferens. Nature of the series: Mouse vas deferens assay: antagonism of nociceptin-induced relaxation (Schild pA2). Conditions: Schild equation; antagonism of nociceptin-induced relaxation; n = 4. The method, then: as §1
The effects of Ac-RYYRWK-NH2 (SEQ ID NO: 1) and Compound 1 on nociceptin-induced relaxation in the mouse vas deferens assay were also tested. […] Using the Schild equation ^[7], the pA2 values which indicates affinity of a compound as an antagonist were calculated.

For series [5], the target named is T1, human ORL1 receptor (human, UniProt P41146 1-370). Nature of the series: cell-based or functional assay.
T1 sequence (P41146 whole entry): as above
For series [6], the target named is T1, human ORL1 receptor. Nature of the series: binding to hORL1 receptor expressed in CHO cells, one experiment.
The target of series [7] is T1, human ORL1 receptor. Description: cell-based or functional assay. The source holds these as a separate data set.

On hORL1 receptor, `CC(=O)N[C@H](CCCCN)C(=O)N[C@H](CCCCN)C(=O)N[C@H](CCCCN)C(=O)N[C@H](CCCCN)C(=O)N[C@H](CCCCN)C(=O)N[C@H](CCCCN)C(=O)N[C@H](CCCCN)C(=O)N[C@H](Cc1c[nH]c2ccccc12)C(=O)N[C@H](CCCNC(=N)N)C(=O)N[C@H](Cc1ccc(O)cc1)C(=O)N[C@H](Cc1ccc(O)cc1)C(=O)N[C@H](CCCNC(=N)N)C(N)=O` [Compound 7, Ac-KKKKKKKWRYYR-NH2 (all D)] (HELM PEPTIDE1{[ac].[dK].[dK].[dK].[dK].[dK].[dK].[dK].[dW].[dR].[dY].[dY].[dR].[am]}$$$$V2.0) had an IC50 of over 100 nM.
Consider `CC(C)C[C@H](NC(=O)[C@H](CCCCN)NC(=O)[C@H](CCCN=C(N)N)NC(=O)[C@H](C)NC(=O)[C@H](CO)NC(=O)[C@H](CCCCN)NC(=O)[C@H](CCCN=C(N)N)NC(=O)[C@H](C)NC(=O)CNC(=O)[C@@H](NC(=O)[C@H](Cc1ccccc1)NC(=O)CNC(=O)CNC(=O)[C@@H](N)Cc1ccccc1)[C@@H](C)O)C(=O)N[C@@H](C)C(=O)N[C@@H](CC(N)=O)C(=O)N[C@@H](CCC(N)=O)C(=O)O` [nociceptin, reference compound], for which the “heart rate, arterial pressure and RSNA” value in series [1] (i.v. bolus 30 and 100 nmol/kg, data not shown) is “rapid bradycardia, a hypotensive response and initial RSNA suppression”. Further, the MAP response entry in [1] (i.v. infusion 11 nmol/kg/min, FIG. 2) is on record as “significantly decreases MAP”.
On to Ac-KKKKKKRYYRWK-NH2 [Compound 2], for which, in the series on mouse vas deferens, the “potency order for inhibition of electrically-induced contraction of the mouse vas deferens” value is on record as “nociceptin>Compound 1=Compound 2>>Ac-RYYRWK-NH2”.
With “Ac-RYYRWK-NH2 [Compound CE1, Ac-Arg-Tyr-Tyr-Arg-Trp-Lys-NH2, reference compound]”, the half-life at 0.1 mg/mL in [2] lay in the range of 2 to 5 min. Moreover, the half-life at 0.1 mg/ml in [3] (37° C., mean (n=3) +/− deviation, read-out: T1/2 in min (degradation in human heparinised plasma)) was 50.7 min; in series [3] (read-out: half life in plasma), under 60 min. Further, the “potency order for inhibition of electrically-induced contraction of the mouse vas deferens” value in the series on mouse vas deferens is “nociceptin>Compound 1=Compound 2>>Ac-RYYRWK-NH2”. Also, the pA2 value in series [4] is 7.8 (n = 4).
For the molecule “Compound 8 Ac-D-Arg-D-Tyr-D-Tyr-D-Arg-D-Trp-D-Lys-D-Lys-D-Lys-D-Lys-D-Lys-D-Lys-D-Lys-NH2 (peptide)”, in the series with human ORL1 receptor [5], the Efficacy EC50 (nM), inhibition of forskolin-induced cAMP formation came out at 59 nM.
For Ac-KYYRWKKKKKKK-NH2 [Compound 9 Ac-Lys-Tyr-Tyr-Arg-Trp-Lys-Lys-Lys-Lys-Lys-Lys-Lys-NH2], the IC50 with human ORL1 receptor [6] is 3.7 nM. Moreover, the “Efficacy EC50 (nM), inhibition of forskolin-induced cAMP formation” value (“Efficacy EC50 (nM), inhibition” below) in the series with human ORL1 receptor [7] is 0.035 nM.
With Ac-RYYRIKKKKKKK-NH2 [Compound 10 Ac-Arg-Tyr-Tyr-Arg-Ile-Lys-Lys-Lys-Lys-Lys-Lys-Lys-NH2], in the series with human ORL1 receptor [6], the IC50 worked out at 0.51 nM.
Still for that read-out and setting: as for Ac-RYYRWKAKKKKK-NH2 [Compound 11 Ac-Arg-Tyr-Tyr-Arg-Trp-Lys-Ala-Lys-Lys-Lys-Lys-Lys-NH2], the figure is 0.27 nM.
H-NEEEEERYYRWKKKKKKK-NH2 [Compound 3 H-Asn-Glu-Glu-Glu-Glu-Glu-Arg-Tyr-Tyr-Arg-Trp-Lys-Lys-Lys-Lys-Lys-Lys-Lys-NH2] showed a half-maximal inhibitory concentration (IC50) with human ORL1 receptor [6] of 235 nM. Also, the “Efficacy EC50 (nM), inhibition” value with human ORL1 receptor [7] was 83 nM.
Ac-KKKKKKKWRYYR-NH2 [Compound 6 Ac-Lys-Lys-Lys-Lys-Lys-Lys-Lys-Trp-Arg-Tyr-Tyr-Arg-NH2]: the IC50 with human ORL1 receptor [6] was 115 nM. Also, the “Efficacy EC50 (nM), inhibition” value with human ORL1 receptor [7] was found to be 135 nM.
In the case of Ac-RYYRWKKKKKK-NH2 [Compound 12 Ac-Arg-Tyr-Tyr-Arg-Trp-Lys-Lys-Lys-Lys-Lys-Lys-NH2], the IC50 in the series with human ORL1 receptor [6] was found to be 0.15 nM.
For Ac-RYNRWKKKKKKK-NH2 [Compound 4 Ac-Arg-Tyr-Asn-Arg-Trp-Lys-Lys-Lys-Lys-Lys-Lys-Lys-NH2], in the series with human ORL1 receptor [7], the “Efficacy EC50 (nM), inhibition” value is 91 nM.

B1: Compound CE1 Ac-Arg-Tyr-Tyr-Arg-Trp-Lys-NH2 (peptide)
peptide: Ac-RYYRWK-NH2
notes: Unconjugated comparison hexapeptide; also called Ac-RYYRWK-NH2
On to B1, for which the IC50 with human ORL1 receptor [6] stood at 0.31 nM. Moreover, in the series with human ORL1 receptor [7], the “Efficacy EC50 (nM), inhibition” value is 0.41 nM.
